The supplement of paper PMC12042874
± gives the uncertainty stated by the source.

Experiment: amyloid nucleation score (Sup35N fusion, yeast selection) (log enrichment); library NNK2; higher = more nucleation; inactive = no reads after selection
Method in brief: (§1)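 Sup35N fusions to peptides of 20 random codons were expressed in psi-negative yeast, induced 24 hours with 100 μM copper sulfate, and grown 7 days at 30°C on medium lacking adenine and uracil. Input and output plasmid inserts were sequenced by Illumina. The nucleation score is the DiMSum log enrichment of output over input reads, centred on the mode score of non-aggregating sequences. Sequences with under 100 input reads were excluded.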

Which amyloid nucleation score does the source give for NVFSS here?
Its amyloid nucleation score is -0.42 ± 0.35.

Which amyloid nucleation score does the source give for YPYSPLSKRRNLRWINFVRC here?
The amyloid nucleation score was -1.46 ± 1.1.

With YQAGWDEVGSLCLRVRNEKL as the substance, how does the amyloid nucleation score read?
Its amyloid nucleation score is 4.38 ± 0.074.

Which amyloid nucleation score does the source give for YQGNIRVGISRSRK here?
The amyloid nucleation score was 0.36 ± 0.41.

With YQGSLGSDMAISKLFDSDYE as the substance, how does the amyloid nucleation score read?
Its amyloid nucleation score is -0.656 ± 1.1.

With YQHDT as the substance, how does the amyloid nucleation score read?
Its amyloid nucleation score is 0.871 ± 0.27.

With YRCSDLYK as the substance, how does the amyloid nucleation score read?
The amyloid nucleation score was 2.47 ± 0.29.

With YRDRINSNYFALDFNILLHY as the substance, how does the amyloid nucleation score read?
The amyloid nucleation score was 3.57 ± 0.046.

With YRGQLARCDILHSWQTVCSM as the substance, how does the amyloid nucleation score read?
The amyloid nucleation score was -0.337 ± 0.49.

For YRLAFKMRNHGYQVELGLSV, which amyloid nucleation score is on record?
Its amyloid nucleation score is -0.088 ± 1.1.

For YRLVHNSKREPGWRSCEWDH, which amyloid nucleation score is on record?
The amyloid nucleation score was 0.046 ± 0.63.

For YRRSPFETSGLQSCYCGSIG, which amyloid nucleation score is on record?
The amyloid nucleation score was -0.003 ± 1.1.

With YRSIC as the substance, how does the amyloid nucleation score read?
The amyloid nucleation score was -1.63 ± 0.75.

Which amyloid nucleation score does the source give for YRTPYFIAIQDQRYCLVSLG here?
Its amyloid nucleation score is -0.87 ± 0.45.

For YRVNALKQIMLRLKQFCRLA, which amyloid nucleation score is on record?
The amyloid nucleation score was -0.647 ± 0.64.

For YRVYLVFYDFVFVFYMSKYL, which amyloid nucleation score is on record?
The amyloid nucleation score was “inactive”.

Which amyloid nucleation score does the source give for YRYCSCMNLAWERFGNPEGQ here?
Its amyloid nucleation score is -0.399 ± 0.46.

For YSAPCGGDGESWDGFKMMEH, which amyloid nucleation score is on record?
The amyloid nucleation score was 0.053 ± 1.1.

With YSEQNKWSRFVTDGGNLV as the substance, how does the amyloid nucleation score read?
Its amyloid nucleation score is -0.802 ± 0.61.

For YSFFCSMILYPIHDNVGWSF, which amyloid nucleation score is on record?
Its amyloid nucleation score is 4.86 ± 0.088.

With YSFLWSVTATFDVTIISGCA as the substance, how does the amyloid nucleation score read?
Its amyloid nucleation score is 3.1 ± 0.05.

With YSFNALRRY as the substance, how does the amyloid nucleation score read?
The amyloid nucleation score was 0.632 ± 0.25.

Which amyloid nucleation score does the source give for YSFRGWSSSVWVTGWCGRSA here?
Its amyloid nucleation score is 0.45 ± 0.62.

With YSFVCIRIGPLKEVCKLNSC as the substance, how does the amyloid nucleation score read?
The amyloid nucleation score was -0.774 ± 1.1.

For YSIKQAY, which amyloid nucleation score is on record?
Its amyloid nucleation score is “inactive”.

For YSISQLWYTLTIHVPFHPLK, which amyloid nucleation score is on record?
Its amyloid nucleation score is -0.114 ± 0.15.

Which amyloid nucleation score does the source give for YSLLNVSHVVFTSA here?
The amyloid nucleation score was -0.71 ± 0.61.

With YSRFYLYMSRRGMRS as the substance, how does the amyloid nucleation score read?
The amyloid nucleation score was -0.122 ± 0.53.

Which amyloid nucleation score does the source give for YSRWRSLCTGAAFPGFWLNT here?
Its amyloid nucleation score is 1.96 ± 0.14.

For YSSCLCLQCTRMQTPMVQFL, which amyloid nucleation score is on record?
The amyloid nucleation score was 0.032 ± 0.53.

Which amyloid nucleation score does the source give for YSSFDISLYFGNHHWSLMTR here?
The amyloid nucleation score was 4.11 ± 0.078.

Which amyloid nucleation score does the source give for YSSSKNTVVMSAKSMVRLRT here?
The amyloid nucleation score was 0.52 ± 0.56.

For YSTTDHKWSRNLGIIMVVMW, which amyloid nucleation score is on record?
Its amyloid nucleation score is 0.185 ± 0.48.

Which amyloid nucleation score does the source give for YSVDACMMNGSVDKTVSFR here?
The amyloid nucleation score was 0.122 ± 1.1.

For YSVLTLED, which amyloid nucleation score is on record?
The amyloid nucleation score was 0.374 ± 0.29.

Which amyloid nucleation score does the source give for YTANLWYQAWMYSYCENPPT here?
Its amyloid nucleation score is “inactive”.

For YTAWMALKNGRLVSGFKAR, which amyloid nucleation score is on record?
Its amyloid nucleation score is 0.009 ± 0.34.

For YTFGTNWVCW, which amyloid nucleation score is on record?
The amyloid nucleation score was 3.6 ± 0.062.

Which amyloid nucleation score does the source give for YTFYLNF here?
The amyloid nucleation score was 5.27 ± 0.053.

For YTTQLGWWFFRGRTTLNKWV, which amyloid nucleation score is on record?
Its amyloid nucleation score is 1.06 ± 0.61.

With YTVYFSVGVVVE as the substance, how does the amyloid nucleation score read?
Its amyloid nucleation score is -1.42 ± 0.49.

For YVCLFEFVMVCCDFTLFCKV, which amyloid nucleation score is on record?
The amyloid nucleation score was 0.585 ± 0.8.

Which amyloid nucleation score does the source give for YVDTRLKTSVLFRK here?
The amyloid nucleation score was 3.93 ± 0.043.

Which amyloid nucleation score does the source give for YVHMMSMKPHQLINCLRLFY here?
The amyloid nucleation score was -1.2 ± 0.74.

For YVLDFSNWIGDTADSIVAV, which amyloid nucleation score is on record?
The amyloid nucleation score was 0.145 ± 0.56.

Which amyloid nucleation score does the source give for YVLIVRYILGSSLRELAYGR here?
The amyloid nucleation score was -0.38 ± 0.3.

Which amyloid nucleation score does the source give for YVLKLRRSRQSLSHRPALLY here?
The amyloid nucleation score was “inactive”.

For YVLRYYALVLYFLICWYYAY, which amyloid nucleation score is on record?
Its amyloid nucleation score is 0.215 ± 0.57.

Which amyloid nucleation score does the source give for YVRKVKA here?
The amyloid nucleation score was 0.276 ± 1.

Which amyloid nucleation score does the source give for YVSFMGNSNMFVKLFLRGCI here?
Its amyloid nucleation score is 0.391 ± 0.2.

For YVVKWPCGLTPCALPTPIRQ, which amyloid nucleation score is on record?
The amyloid nucleation score was 0.969 ± 0.21.

With YVWSWVGQYCRVIAAHGIWW as the substance, how does the amyloid nucleation score read?
The amyloid nucleation score was 0.79 ± 0.26.

With YWACDTFSILVLGNTVDSLD as the substance, how does the amyloid nucleation score read?
The amyloid nucleation score was “inactive”.

With YWELDCTGYEGGMIRREWEI as the substance, how does the amyloid nucleation score read?
Its amyloid nucleation score is 0.586 ± 0.81.

Which amyloid nucleation score does the source give for YWFARCHFSPAMRIYYRTRA here?
The amyloid nucleation score was -0.171 ± 0.62.

With YWGGLCHLMSYRFTCIKYVG as the substance, how does the amyloid nucleation score read?
Its amyloid nucleation score is -0.698 ± 0.64.

With YWLNMWFYRSSASYRSMDMD as the substance, how does the amyloid nucleation score read?
The amyloid nucleation score was -0.713 ± 0.55.

With YWSICPCCFLVSFSDTSWKG as the substance, how does the amyloid nucleation score read?
Its amyloid nucleation score is 8.138 ± 0.057.

Which amyloid nucleation score does the source give for YWSVV here?
The amyloid nucleation score was 3.73 ± 0.11.

For YYFDPS, which amyloid nucleation score is on record?
The amyloid nucleation score was -0.961 ± 0.62.

For YYIALWVVGHMGYIDGCTSC, which amyloid nucleation score is on record?
The amyloid nucleation score was 2.45 ± 0.1.

For YYKKTVVPYRLYAGLELIAT, which amyloid nucleation score is on record?
The amyloid nucleation score was -0.607 ± 0.48.

For YYLFGKF, which amyloid nucleation score is on record?
The amyloid nucleation score was -0.509 ± 1.1.

Which amyloid nucleation score does the source give for YYLGWIMLVHYGSWTTCLVR here?
Its amyloid nucleation score is 0.531 ± 0.64.

Which amyloid nucleation score does the source give for YYQVVTNNLSI here?
The amyloid nucleation score was 0.129 ± 0.76.

Which amyloid nucleation score does the source give for YYRRNKIWSVSQQWGGIRSR here?
The amyloid nucleation score was 0.596 ± 0.62.

With YYSFPISIGWVSNCMFVWEV as the substance, how does the amyloid nucleation score read?
Its amyloid nucleation score is 6.53 ± 0.073.

Which amyloid nucleation score does the source give for YYSPQSVKEYPRNTYRLIKA here?
Its amyloid nucleation score is -0.613 ± 0.45.

Which amyloid nucleation score does the source give for YYSVGNAGL here?
Its amyloid nucleation score is -1.3 ± 0.39.

For YYTCTLSRWRQSAYLGGRLR, which amyloid nucleation score is on record?
Its amyloid nucleation score is 0.284 ± 0.26.

With YYTLWVTLTRLTNC as the substance, how does the amyloid nucleation score read?
Its amyloid nucleation score is -0.288 ± 0.5.

Experiment: amyloid nucleation score (Sup35N fusion, yeast selection) (log enrichment); library NNK1; higher = more nucleation; inactive = no reads after selection
Method in brief: as §1

Which amyloid nucleation score does the source give for AAGHVAVAIRNRVVIARSRT here?
Its amyloid nucleation score is 3.4 ± 0.11.

For AAMCLLIWRACRISVDMHMC, which amyloid nucleation score is on record?
Its amyloid nucleation score is -0.205 ± 0.27.

Which amyloid nucleation score does the source give for AANCTMMFKKPSWNVTRERV here?
The amyloid nucleation score was 0.26 ± 0.34.

Which amyloid nucleation score does the source give for AARRLNELSSELKWMCSATD here?
Its amyloid nucleation score is -0.077 ± 0.4.

With AAVMCAIDLIGLNFGLGNWK as the substance, how does the amyloid nucleation score read?
Its amyloid nucleation score is 7.816 ± 0.052.

With ACARTTDIFV as the substance, how does the amyloid nucleation score read?
Its amyloid nucleation score is -1 ± 1.1.

For ACDTS, which amyloid nucleation score is on record?
The amyloid nucleation score was 0.693 ± 0.45.

Which amyloid nucleation score does the source give for ACPVGTRFTVATTFRRMLCE here?
The amyloid nucleation score was 0.312 ± 0.47.

Which amyloid nucleation score does the source give for ACWYLKRFLIMGKLSWS here?
Its amyloid nucleation score is -0.15 ± 0.3.

With ADARVQGLSRLWGSGFNRLP as the substance, how does the amyloid nucleation score read?
The amyloid nucleation score was 0.53 ± 0.51.

Which amyloid nucleation score does the source give for ADCFCNRFNVICVKHYGSAR here?
Its amyloid nucleation score is 0.159 ± 0.42.

For ADDACVSET, which amyloid nucleation score is on record?
Its amyloid nucleation score is “inactive”.

Which amyloid nucleation score does the source give for ADDGCSRNVCQTLYMSFLVN here?
Its amyloid nucleation score is -0.072 ± 0.35.
